B1: hu2131_Q1E_M99G hIgG1k P238D (antibody, V domains shown)
VH: EVQLVQSGAEVKKPGASVKVSCKASGHTFTSYWMHWVRQAPGQGLEWMGNIYPGSGSINYDEKFQGRVTMTADTSTSTVYMELSSLRSEDTAVYYCLTGTGTSWGRGTLVTVSS
VL: DIQMTQSPSSLSVSVGDRVTITCQASQGTPINLHWFQQKPGKAPKLLISGASNLESGVPSRFSGSGSGTEFTFTISSLQPEDAATYYCLQFTYIPWTFGQGTKLEIKR
B2: anti-CD200R antibody clone 21.3.1 (mIgG1k isotype) (antibody, V domains shown)
VH: QVQLQQPGSELVRPGASVKLSCKASGHTFTSYWMHWVKQRPGQGLEWIGNIYPGSGSINYDEKFKSKAKLTVDTSSRTAYMQLSSLTSEDSAVYYCLTMTGTSWGQGTLVTVSA
VL: DVQMIQSPSSLSASLGDIVTMTCQASQGTPINLHWFQQKPGKAPKLLISGASNLEDGVPSRFSGSRYGTAFTLTISSLEDEDMATYFCLQFTYIPWTFGGGTKLEIKR
B3: Antibody I-4P (antibody, human IgG4 S228P, kappa, V domains shown)
VH: QVQLVQSGAEVKKPGASVKVSCKASGFSFSSGYYMAWVRQAPGQGLEWMGLIGVGSGSLWYAQKFQGRVTMTRDTSTSTVYMELSSLRSEDTAVYYCARHFALSDPFNLWGQGTLVTVSS
VL: EIVLTQSPDFQSVTPKEKVTITCQASESIDSYLLWYQQKPDQSPKLLIKQASTLASGVPSRFSGSGSGTDFTLTINSLEAEDAATYYCQNYYDISSNDFGGGTKVEIKR

Tests used:
[1] = target: extracellular domain of human CD200R (Met29-Leu243) (human) (UniProt Q8TD46); test: SPR (Biacore), antibody captured by anti-human Fc, CD200R extracellular domain injected, single cycle kinetics, 25 C
[2] = target: human CD200R expressed on cells (human) (UniProt Q8TD46); test: cell-based or functional assay
[3] = target: human CD200R expressed on cells (human) (UniProt Q8TD46); test: flow cytometry on Jurkat T cells expressing human CD200R, 24 h at 37 C, PE anti-hIgG secondary
[4] = target: human CD200R expressed on cells (human) (UniProt Q8TD46)
[5] = target: human CD200R expressed on cells (human) (UniProt Q8TD46); test: flow cytometry on Jurkat T cells lentivirally expressing human CD200R, 24 h at 37 C, PE anti-hIgG secondary antibody, geometric MFI, non-linear curve fit

Binder | Kd [1] [nM] | koff [1] [s⁻¹] | kon [1] [M⁻¹ s⁻¹] | EC50 of Dok2 recruitment to human CD200R (enzyme fragment complementation, PathHunter Jurkat CD200R cells co-cultured with FcγRIIb HEK293 cells) [2] [nM] | EC50 [3] [nM] | EC50 of DOK2 recruitment to CD200R, enzyme fragment complementation luminescence, PathHunter Jurkat CD200R cells co-cultured with FcgRIIb-expressing HEK293 cells [4] [nM] | Average % inhibition of SEAP activity at Log [Antibody], M = -8.18 [2] [%] | Average % inhibition of SEAP activity at Log [Antibody], M = -8.8 [2] [%] | Average % inhibition of SEAP activity at Log [Antibody], M = -9.57 [2] [%] | Average % inhibition of SEAP activity at Log [Antibody], M = -10.27 [2] [%] | Average % inhibition of SEAP activity at Log [Antibody], M = -10.9 [2] [%] | Average % inhibition of SEAP activity at Log [Antibody], M = -11.6 [2] [%] | Average % inhibition of SEAP activity at Log [Antibody], M = -12.3 [2] [%] | IC50 of inhibition of NF-kB-inducible SEAP reporter activity in CD200R-expressing THP-1 dual cells [2] [nM] | average maximal percentage inhibition (Emax) of SEAP activity [2] [%] | EC50 [5] [nM]
B1 | < 0.0193 | < 1e-05 | 517000 | 0.44 | 0.53 | 0.437 |  |  |  |  |  |  |  |  |  | 
B2 |  |  |  |  |  |  | 35.3 | 28.3 | 23.4 | 9.8 | 1.1 | 1 | 1.7 | 0.141 | 33.2 | 
B3 |  |  |  | 1.1 | 3.4 | 1.14 | 22.3 | 20.9 | 16.1 | 7.7 | 3.2 | 2.2 | 3.1 | 0.134 | 19.9 | 3.43
